From the nanobody polyreactivity screen of Harvey et al. (2022)

Test: yeast display, Sf9 membrane polyspecificity reagent, FACS + sequencing; frameworks hold sequencing errors
Outline: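 A synthetic nanobody library was expressed on Saccharomyces cerevisiae BJ5465 by galactose induction for 36–48 hours. The library was stained for 1 hour at 4 °C with 10% biotinylated, detergent-solubilized Sf9 membrane reagent and enriched with streptavidin microbeads before FACS. Low and high (top ~1%) gates were set on anti-HA fluorescence for expression and streptavidin fluorescence for reagent binding, and each polyreactivity label reflects the gate of origin.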

Row | Sequence | polyreactivity (PSR sort gate)
1 | QVQLVESGRGLVQAGGSLRLSCAASGSIFGTNTMGWYRQAPGKERELVAAISWSGGSTYYADSVKGRFTISRDNAKNSVYLHMNSLKPEDTAVYYCNAVYPSVYPVSTRYYWGQGTQVTVSS | high polyreactivity
2 | QVQLVESGGGLVQAGGSLRLSCAASGSIFRWNAMGWYRQAPGKERDLVDVINSSVGSTYYADSVKGRFTISRDNAKNTVYLQMYSLKPEDTAVYYCAADVELGWGNSVAYEYWGQGTQVTVSS | low polyreactivity
3 | QVQLVESGGGLVQAGGSLRLSCAASGRTFYGYVMGWYRQAPGKERELVAAISSGGNTKYADSVKGRFTISRDNAKNTVYLQMNSLKPEDTAVYYCAAGSSVTPYRYYYWGQGTQVTVSS | high polyreactivity
4 | QVQLVESGGGLVQAGGSLRLSCAASGIIFRYYAMGWYRQAPGKERELVAAITVNGGRTYYADSVKGRFTISRDNAKNTVYLQMNSLKPEDTAVYYCAAYPHRYRVTPYPSVVSLDNYWGQGTQVTVSS | low polyreactivity
5 | QVQLVESGGGLVQAGGSLRLSCAASGSIFDRYAMGWYRQAPGKERELVAAISTDGTRTYYADSVKGRFTISRDNAKNTVYLQMNSLKPEDTAVYYGAKYWRSNYYYWGQGTQVTVSS | high polyreactivity
6 | QVQLVESGGGLVQEGGSLRLSCAASGRISVRYGMGWYRQAPGKERELVATISQSGGSTYYADSVKGRFTISRDNAKNTVYLQMNSLKPEDTAVYYCAAETDYVRHARKYDFWGQGTQVTVAS | low polyreactivity
7 | QVQLVESGGGLVQAGGSLRLSCAASGFIFDYYAMGWYRQAPGKERELVAAITSRSGSTYYADSVKGRFTISRDNAKNTVYLQMNSLKPEDTAVYYCARRFKYGSTAWRFYYWGQGTQVSVSS | high polyreactivity
8 | QVQLVESGGGLDQAGGSLRLSCAASGSIYNRYAMGWYRQAPGKERELVADISSGGGTSYADSVKGRFTISRDNAKNTVYLQMNSLKPEDTAVYYCAAELYYWTYVRFDYWGQGTQVTVSS | high polyreactivity
9 | QVQLVESGGGLVQAGGSLRLSCAASGITSQSYAMGWYRQAPGKERELVAGISASGGRTFYADSVKGRFTISRDNAKNTVYLQMNSLKPEDTAVYYCNKLSSDSYNYWGQGTQVTVSS | high polyreactivity
10 | QVQLVESGGGLVQAGGSLRLSCDASGTFYGKTMGWYRQAPGKERELVAVISIDGSTNYADSVKGRFTISRDNAKNTVYLQMNSLKPEDTAVYYCNARNQWRTVGKYDYWGQGTQVTVSS | low polyreactivity
11 | QFQLVESGGGLVQAGGSLRLSCAASGITFTFNARGWYRQAPGKERELVAAITWSGGSPFYADSVKGRFTISRDNAKNTVYLQLNSLNPEDTAVYYCARDTELYVRWLDYWGQGTQVTVSS | low polyreactivity
12 | QVQLVESGGGLVQAGGSLRLSCAASGSIFYTNALGWSRQARGKERELVAAMSISGSTYYADSVKGRFTISRDNAKNTVYLQMNSLKPEDTAVYYCAAGPGYVRYPRSGVWYVTLYDYWGQGTQVTVSS | high polyreactivity
13 | QVQLVESGGGLVQAGGSLRLSCAASGRIFSVYAMGWYRQAPGKERELVAAITWTGGRTYYADSVKGRFTISRDNAKNTVYLQMNSLKPEDTAVYYCNKDWGRYRYDYWGQGTQVTVSS | high polyreactivity
14 | QVQIVESGGGLVQAGGSLRVTCAASGSIFPPKAMGWYRQAPGKERELLADISGSGRTYYADSVKGRFTISRDNAKNTVYLQMNSLNPEDTAVYYCAARQQRRPTTRVFGYWGQGTQVTVSS | high polyreactivity
15 | QVQLVESGGGLVQAGGSLRLSCAASGSIFEAYAMGWYRQAPGKEREVVAVISWRGGRTYYADSVKGRFTISRDNAKNTVYLQMNSLNPEDTAVYYCNKAYWWHQVGLPRNYEYWGQGTQVTVSS | low polyreactivity
16 | QVQLVESGGALVQAGGSLRLSCAASGSTFRYDMGWYRQAPGKERELVAAITWGGVSTYYADSVKGRFTISRDNAKNTVYLQMNSLKPEDTAVYYCNVVISLQQGDYWGQGTQVTVSS | low polyreactivity
17 | RVQLQESGGGLVQEGGSLRLSCAPSSTISRDFYMGWYRQAPGKELEFVASITYGASTNYADSVKGRVTISRDNANNTVYLQMNSLKPEDTAVYYSNAKQQPYGGTDSDYWGQGTQVSVSS | low polyreactivity
18 | QVQLVESGGGLVQAGGSLRLSCAASGITFRYYAMGWYRQAPGKERELVATINWSGGTTHYADSVKGRFTISRENAKNTVYLQMNSLKPEDTAVYYCAADPWQYKLGWPPFTYDYWGQGTQVTVSS | high polyreactivity
19 | QVKLVESGGGLVQAGGSHRLSCPASGRIFYPYAMGWYRQAPGKESELVAAISWSTVSTYYADSVKGRFTISRDNAKNNVYLQMNSLKPEDTAVYYCAARLYFSSSLRCVDFWGQGTQVTVSS | high polyreactivity
20 | QVQLVESGGGLVQAGGSLRLSCAASGSTFGRYAMGWYRQAPGKERELVAAISRGGSTYYADSVKGRFTISRDNAKNTVYLQMNSLKPEDTAVYYCNKGDSKEYDVYYWGQGTQVTVSS | low polyreactivity
21 | QVQLVESGGGLVQAGGSLRLSCAASGSTFSPNAMGWYRQATGKERELVAAITYRGANTYYADSVKGRFTISRDNAMITVYFQLNSLKPEDTAVYYCAPEYAYHHVGFGYWRQGTQVTVSS | low polyreactivity

Row | Sequence | polyreactivity (PSR sort gate)
22 | QVQLVESGGGLVQAGGSLRLSCSASGFIFTLYAMGWYRQAHGKERELVASIRGSGVNTYYADSVKGRFTISRDNAKNTDYLQMNSLKPEDTAVYYCAARTYRRPYYSWGQGTQVTVSS | high polyreactivity
23 | QVQLVESGGGLVQAGGSLRLSCAASGLTIWANTKGWYRQAPGKERELVAAISLSDGSTYYADSVKGRFTISRDNAKNTVYVQMNSLKPEDTAVYYCAARVQHYLATDDYWGQGTQVTVSS | low polyreactivity
24 | QVQLVESGGGLVQAGGSLRLSCAASGSIFFPNAMGWYRQAPGKERELVAAISWSGDSTYADSVKGRFTISRDNAKNTVYLQMNSLKPEETAVYSCAAVYLWWSYEFDYWGQGTHVTVSS | low polyreactivity
25 | QVQLVESGGGLVQAGGSLRLSCAASGLTFVWYSMGWYRHAPGKERELVAGITSGGRTYYADSVKGRFTISRDNAKNTVYLQMNRLKPEDTAVYYCAAYGNYNEYDSWGQGTQVSVSS | high polyreactivity
26 | QVQLVESGGGLVQAGGSLRLSCAASGFTFCRYAMGWYRQAPGKEREFVAGISSSGGSTYYADSVKGRFTISRDNAKNTVYLQMNSLKPEVTAVYYCNKARYFTGQRYDYWGQGTQVTVSS | high polyreactivity
27 | QVQLVESGGGLVQAGGSLRLSCAASGSIFGDNAMGWYRQAPGKERELVASITWSGGSTFYADSVKGRFTISRDNAKNTVYLQMNSLKPEDTAVYYCNADYAESPYFYLLLDYWGQGTQVTVSS | low polyreactivity
28 | QDQLVESGGGLVQAGGSLRLSCAASGSTFYNYAMAWYRQAPGKEREFVAAISSGGGITYYADSVKGRFTISRDNAKNTVFLQMISLIPEDTAVYYCNAKMISGISTADSRSRIYDYWGHGTQVTVSS | high polyreactivity
29 | QVQLVDSGGGLVQAGGSLRLSCAASGRIFKWTAMGWYRPAPGKERELVAAIRWSSGRTYYADSVKGRFTISRDNAKNTVYLQMNSLKPEDTAVSYCAANNGYGMDYWGQGTQVTVSS | high polyreactivity
30 | QVQLVESGGGLVQAGGSLRLSCAATRSTIQANTIGWYRQAPGKERALVAAISIRGANTYYADSVKGRLTISRDNAKNTFYLQMNSLKREDSAVYYCATRVGKYSLSLDYWGQGTQVTVSS | high polyreactivity
31 | QVQLVESGGGLVQAGGSLRLICAASGSIFYQNAMVGYRQAPGKERELVAAIRSRGGSTYYADSVKGRFTISRDNATNTVYLQMNSLKPEDTAVYYCNKLSRTTSYTYNYWGQGTQVTVSS | low polyreactivity
32 | QVHLVDSGGGLVQAGGSLRLSCAASGYTFIAYTMGWYRQAPGKERELVAAITTGGRTYYADSVKGRFTISRDNAKNTVYLQMNSLKPEDTAVYYCAAYYSARYKYGGVDYWGQGTQVTVSS | high polyreactivity
33 | QVQLVESGGGLVQAGGSLRLSCAASGRIFKGYAMGWYRQAPGKERELVAAITISGGSTYYADSVKGRFTISRDNAKNTVYLQMNSLKPEDTAVYYCAARKFVYWYGMEYWGQGSQVTVSS | low polyreactivity
34 | QGQLVESGGGLVQAGGRLRLSCAASGRIFPNNAMGWYRQAPGKERELVAAISRSGGRTYYADSVKGRFTISRDNAKNTVYLQMNSLKPEDTAVYYCAARSWGGYDSRGYWGQGTQVTVSS | high polyreactivity
35 | QVQLVESGGGLVQAGGSLRLSCAASGGTFKPNVMGWYRQAPGKERELVAAITSGGSTYYADSVKGRFTMSRDNAKNTVYLQMNSLKPEDTAVYYCAATSLRRYGYNYWGQGTQVTVSS | high polyreactivity
36 | QVQLVESGGGLVQAGGSLRLSCAASGLPFKSNAMGWYRQAPGKERELVASISKRGGTTYYADSVKGRFTISRDNAKNTVYLQIKSLKPEDTAVYYCAAQSRATTYSWWTGSDYWGQGTEVTVSS | high polyreactivity
37 | QVQLVESGGGLVQAGGSLRLSCAASGITFYRYTMGWYRQAPGKERELVAAIRSGGSTYYADSVKGRFTISRDNAKNTVYLQMNSLKPEDTAVYYCAAPYYRYNVPYYGGNGGDYWGQGTQVTVSS | high polyreactivity
38 | QVQLVESGGGLVQAGGSLRLSCAASGRTFGPNGMGWYRQAPGKERELLAVITSSGGRTYYADSVKGRFTISRDNAKNTVYLQMNSLKPEDTAVYYCAADAKKFGGTKNAELDYWGQGTQVTVSS | low polyreactivity
39 | QVQLVESGGGLVQAGGSLRLSCAASGIIFIAYAMGWYRQAPGKERELVADISIGGSTNYADSVKGRFTISRDNAKNTVYLQMNSLKPEDTAVYYCNAGGGFYGSTVEHDYWGQGTQVTVSS | low polyreactivity
40 | QVQLVESGGGLVQAGGSLRLSCAASGFTFRSYDMGWYRQAPGKERELVAAISSTGRTYYADSVKGRFTISRDNAKNTVYLHMYSLNPEDTAVYYCARNIPVSYYRYGYWGQGSQVTVSS | high polyreactivity
41 | QVQLVESGGGLVQAGGRLRLSCAASGSIYPDKAMGWYRQAPGKERELVAAIDKGTGSTNYADSVKGRFTISRDNAKITVNLQLNSLKPEDTAVYYCAKGWLTPRGGAWYDDYWGQGTQVTVSS | low polyreactivity
